Experimental data: patent publication US20240076391A1 (ONCURIOUS, published 2024)
Positions count from the first letter of the chain named. Numbers in names are those of the source. One block for each binder: values may come before it.

What was measured:
[1] = biological target: T1, human CCR8 (human, UniProt P51685 1-355); experiment: competition with VHH-65 for CCR8 binding
T1 construct: also called hCCR8

[2] = biological target: T1, human CCR8; experiment: flow cytometry competition with FLAG3-His6 tagged parental VHH-74 on hCCR8 cells
Source text: (§1) Multiple His6 tagged VHH variants were thus generated and evaluated by flow cytometry f for their ability to compete for binding to hCCR8 with their FLAG3-His6 tagged parental counterparts. […] Variants that retained binding capacity where selected for further biophysical and chemical stability analysis.

[3] = biological target: T1, human CCR8; experiment: flow cytometry competition with FLAG3-His6 tagged parental VHH-56 on hCCR8 cells
Source text: as §1

[4] = biological target: T2, N-terminal deletion human CCR8 (delta 18-3XHA) (human, UniProt P51685 20-355); experiment: flow cytometry; an extracellular loop binder is defined in paragraph 224 as binding on hCCR8 cells and on human CCR8 (delta18-3XHA)
T2 construct: N-terminally deleted construct with 3XHA, expressed on transfected HEK293 cells
Source text: VHH clones resulting from the human CCR8 immunization and selection campaign were screened by means of flow cytometry for binding to human CCR8 (SEQ ID NO: 79) on stably transfected HEK293 cells or to HEK293 cells previously transfected with plasmid DNA encoding three different versions of human-mouse chimera CCR8 in which one of the extracellular loops (ECLs) was replaced with the mouse CCR8 counterpart, as well as to an N-terminal deletion human CCR8 (SEQ ID NO: 80, delta 18-3XHA herein after), in comparison to mock-transfected control cells. Comparison of the binding (median fluorescent intensity) signal of a given VHH clone across the seven cell lines enabled classification of said clone as an N-terminal human CCR8 binder (i.e. binding on hCCR8 cells, but not on human CCR8 (delta18-3XHA) or control cells) or as an extracellular loop hCCR8 binder (i.e. binding on hCCR8 cells and on human CCR8 (delta18-3XHA), but not on control cells). Binding comparison across the cell lines expressing human-mouse chimera CCR8 allowed to further classify extracellular hCCR8 binders as either ECL1, ECL2 or ECL3 binders.

[5] = biological target: T1, human CCR8; experiment: flow cytometry, human CCR8 stably expressed in HEK293 cells
[6] = biological target: T1, human CCR8; experiment: flow cytometry competition with FLAG3-His6 tagged parental VHH-65 on hCCR8 cells
Source text: as §1

T1 sequence (P51685 whole entry): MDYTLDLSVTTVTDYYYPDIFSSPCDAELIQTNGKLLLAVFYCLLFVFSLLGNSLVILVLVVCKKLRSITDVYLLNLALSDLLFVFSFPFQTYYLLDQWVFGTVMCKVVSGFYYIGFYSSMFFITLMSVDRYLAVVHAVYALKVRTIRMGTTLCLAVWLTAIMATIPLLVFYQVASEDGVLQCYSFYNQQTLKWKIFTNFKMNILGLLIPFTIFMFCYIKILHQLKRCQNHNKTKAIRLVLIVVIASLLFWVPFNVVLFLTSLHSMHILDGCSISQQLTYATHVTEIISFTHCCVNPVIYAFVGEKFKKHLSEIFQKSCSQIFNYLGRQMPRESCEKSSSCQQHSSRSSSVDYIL
T2 sequence (P51685 other isoform, or with tags, fused parts or gaps mutant): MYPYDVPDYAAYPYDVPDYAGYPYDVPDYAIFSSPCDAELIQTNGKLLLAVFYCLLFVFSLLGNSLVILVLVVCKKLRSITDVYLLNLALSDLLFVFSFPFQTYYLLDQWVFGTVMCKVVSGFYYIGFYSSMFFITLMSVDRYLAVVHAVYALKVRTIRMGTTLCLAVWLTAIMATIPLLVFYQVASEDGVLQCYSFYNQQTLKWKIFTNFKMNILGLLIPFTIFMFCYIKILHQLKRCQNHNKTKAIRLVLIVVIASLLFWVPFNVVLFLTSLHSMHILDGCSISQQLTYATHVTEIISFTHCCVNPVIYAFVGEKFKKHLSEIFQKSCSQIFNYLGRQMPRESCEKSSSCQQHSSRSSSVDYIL

binding result [1]: binds
B1: VHH-74 (VHH)
VHH: EVQLVESGGGLVQPGGSLRLSCAASGSTFSIKSIGWYRQAPGKQRELVADITRGAGINYADSVKGRFTISRDNTKNTMYLQMNSLRPEDTAVYYCNVKTIKRTGGIMTGSKIEYDYWGQGTLVTVSS
notes: Monovalent VHH purified from E. coli periplasm by IMAC; not shown: C-terminal FLAG3 and His6 tags

binding result [2]: binds
B2: VHH-125 (VHH)
VHH: B1 VHH with E1D, T74A, M78V, M107L
notes: also called VHH-74 E1D, T74A, M78V, M107L; not shown: C-terminal His6 tag (no FLAG3)

binding result [3]: binds
B3: VHH-114 (VHH)
VHH: DVQLVESGGGLVQPGGSLRLSCAASRSIYNVLAMGWYRQAPGKERELVAVVWSSGNTNYADSVKGRFTISRDNAKNTVYLQMNSLRPEDTAVYYCYSKSLIGTSRYEIWGQGTLVTVSS
notes: 'V691' is printed, probably V69I; also called VHH-56 E1D, M32L, V691; not shown: C-terminal His6 tag (no FLAG3)

binding result [4]: binds
binding result [5]: binds
B4: VHH-56 (VHH)
VHH: B3 VHH with D1E, L32M, I69V
notes: Monovalent VHH purified from E. coli periplasm by IMAC; PelB signal peptide is removed on export; not shown: C-terminal FLAG3 and His6 tags

binding result [3]: binds
B5: VHH-115 (VHH)
VHH: B3 VHH with L32R
notes: 'V691' is printed, probably V69I; also called VHH-56 E1D, M32R, V691; not shown: C-terminal His6 tag (no FLAG3)

binding result [4]: binds
binding result [5]: binds
B6: VHH-65 (VHH)
VHH: EVQLVESGGGLVQPGGSLRLSCAASGRAFSSYNMGWFRQAPGKERDFVATISSSGTNYANSVKGRFTISRDNAKNTVYLQMNSLRPEDTAVYYCNAKTVTRTGGVITGSRIEYDYWGQGTLVTVSS
notes: as for B1

binding result [6]: binds
B7: VHH-89 (VHH)
VHH: B6 VHH with E1D, D46E, N60D
notes: also called VHH-65 E1D, D46E, N60D; not shown: C-terminal His6 tag (no FLAG3)
